Measurements from the Immune Epitope Database (IEDB).

Legend:
[1] = target: HLA-A*68:02; experiment: IEDB peptide-MHC binding, purified MHC/direct/fluorescence; filed as Kd, often an IC50 or EC50 that approximates it; ≥ and ≤ were set here for values at or beyond the usual limits of such assays
[2] = target: HLA-A*24:03; experiment: as above
[3] = target: HLA-A*26:01; experiment: as above
[4] = target: HLA-A*02:16; experiment: as above
[5] = target: HLA-A*03:01; experiment: as above
[6] = target: HLA-A*01:01; experiment: as above; conditions: source organism: Ebola virus - Gabon (1994-1997)
[7] = target: HLA-A*02:19; experiment: as above
[8] = target: HLA-A*02:12; experiment: as above
[9] = target: HLA-A*02:11; experiment: as above
[10] = target: HLA-A*23:01; experiment: as above
[11] = target: HLA-A*02:03; experiment: as above
[12] = target: HLA-A*69:01; experiment: IEDB peptide-MHC binding, purified MHC/competitive/fluorescence; filed as Kd, often an IC50 or EC50 that approximates it; ≥ and ≤ were set here for values at or beyond the usual limits of such assays
[13] = target: HLA-A*02:01; experiment: as above
[14] = target: HLA-B*27:03; experiment: as above
[15] = target: HLA-B*39:01; experiment: as above
[16] = target: HLA-B*35:01; experiment: as above
[17] = target: HLA-B*51:01; experiment: as above
[18] = target: HLA-A*29:02; experiment: IEDB peptide-MHC binding, purified MHC/direct/fluorescence; filed as Kd, often an IC50 or EC50 that approximates it; ≥ and ≤ were set here for values at or beyond the usual limits of such assays; conditions: source organism: Orthohantavirus andesense
[19] = target: HLA-B*18:01; experiment: IEDB peptide-MHC binding, purified MHC/competitive/fluorescence; filed as Kd, often an IC50 or EC50 that approximates it; ≥ and ≤ were set here for values at or beyond the usual limits of such assays; conditions: source organism: Orthohantavirus andesense
[20] = target: HLA-B*46:01; experiment: as above; conditions: source organism: Orthohantavirus andesense
[21] = target: HLA-B*57:01; experiment: as above; conditions: source organism: Orthohantavirus andesense
[22] = source organism: Zaire ebolavirus
[23] = source organism: Orthohantavirus andesense

Sequence TAAIMLASY has a Kd [1, 22] of at least 20 µM, a Kd [2, 22] of at least 20 µM and a Kd ([3]; source organism: Ebola virus - Gabon (1994-1997)) of 1.29 µM. The Kd [4, 22] was at least 20 µM, the Kd [5, 22] was at least 20 µM and the Kd [6] was at least 20 µM. It also gave a Kd [7, 22] of at least 20 µM, a Kd [8, 22] of at least 20 µM and a Kd [9, 22] of at least 20 µM. It also gave a Kd [10, 22] of at least 20 µM, a Kd [11, 22] of at least 20 µM and a Kd [12, 22] of at least 20 µM. The Kd [13, 22] was at least 20 µM, the Kd [14, 22] was at least 20 µM and the Kd [15, 22] was at least 20 µM. The Kd [16, 22] was 0.0002 µM and the Kd [17, 22] was at least 20 µM.
DAVEDFLAF was tested, and the Kd [1, 23] was at least 20 µM, the Kd [2, 23] was at least 20 µM and the Kd [18] was at least 20 µM. The Kd [3, 23] was 0.0126 µM, the Kd [4, 23] was at least 20 µM and the Kd [5, 23] was at least 20 µM. It also gave a Kd [7, 23] of at least 20 µM, a Kd [8, 23] of at least 20 µM and a Kd [9, 23] of at least 20 µM. It also gave a Kd [10, 23] of at least 20 µM, a Kd [11, 23] of at least 20 µM and a Kd [12, 23] of at least 20 µM. For the same sequence, the Kd [13, 23] was at least 20 µM, the Kd [19] was at least 20 µM and the Kd [20] was at least 20 µM. It also gave a Kd [14, 23] of at least 20 µM, a Kd [21] of at least 20 µM and a Kd [15, 23] of at least 20 µM. For the same sequence, the Kd [16, 23] was at most 0.0001 µM and the Kd [17, 23] was at least 20 µM.
